Drawing on US20070282095A1 (published 2007), this text covers Kd for 1 molecule.

Assay [1] deals with 77E203A205G thrombin (lysine 77 to glutamic acid, glycine 203 to alanine, serine 205 to glycine in B chain) (human, UniProt P00734 315-363; P00734 364-622). The assay is described as follows: IAsys biosensor, FAST FIT program; derivative immobilized. As to the method:
(§1) Subsequently, 0.2 ml of 1 M ethanol amine (pH 8) was added thereto to perform a blocking treatment.

Assay [2] has as its target 203A205G thrombin (glycine at position 203 in B chain substituted by alanine, serine at position 205 … (human, UniProt P00734 315-363; P00734 364-622). The description is as above. As to the method:
as §1

As usually defined, the Kd is the concentration at which binding is half-saturated.

B1: fibrinogen (other)
chain 1: ADSGEGDFLAEGGGVRGPRVVERHQSACKDSDWPFCSDEDWNYKCPSGCRMKGLIDEVNQDFTNRINKLKNSLFEYQKNNKDSHSLTTNIMEILRGDFSSANNRDNTYNRVSEDLRSRIEVLKRKVIEKVQHIQLLQKNVRAQLVDMKRLEVDIDIKIRSCRGSCSRALAREVDLKDYEDQQKQLEQVIAKDLLPSRDRQHLPLIKMKPVPDLVPGNFKSQLQKVPPEWKALTDMPQMRMELERPGGNEITRGGSTSYGTGSETESPRNPSSAGSWNSGSSGPGSTGNRNPGSSGTGGTATWKPGSSGPGSTGSWNSGSSGTGSTGNQNPGSPRPGSTGTWNPGSSERGSAGHWTSESSVSGSTGQWHSESGSFRPDSPGSGNARPNNPDWGTFEEVSGNVSPGTRREYHTEKLVTSKGDKELRTGKEKVTSGSTTTTRRSCSKTVTKTVIGPDGHKEVTKEVVTSEDGSDCPEAMDLGTLSGIGTLDGFRHRHPDEAAFFDTASTGKTFPGFFSPMLGEFVSETESRGSESGIFTNTKESSSHHPGIAEFPSRGKSSSYSKQFTSSTSYNRGDSTFESKSYKMADEAGSEADHEGTHSTKRGHAKSRPV
chain 2: QGVNDNEEGFFSARGHRPLDKKREEAPSLRPAPPPISGGGYRARPAKAAATQKKVERKAPDAGGCLHADPDLGVLCPTGCQLQEALLQQERPIRNSVDELNNNVEAVSQTSSSSFQYMYLLKDLWQKRQKQVKDNENVVNEYSSELEKHQLYIDETVNSNIPTNLRVLRSILENLRSKIQKLESDVSAQMEYCRTPCTVSCNIPVVSGKECEEIIRKGGETSEMYLIQPDSSVKPYRVYCDMNTENGGWTVIQNRQDGSVDFGRKWDPYKQGFGNVATNTDGKNYCGLPGEYWLGNDKISQLTRMGPTELLIEMEDWKGDKVKAHYGGFTVQNEANKYQISVNKYRGTAGNALMDGASQLMGENRTMTIHNGMFFSTYDRDNDGWLTSDPRKQCSKEDGGGWWYNRCHAANPNGRYYWGGQYTWDMAKHGTDDGVVWMNWKGSWYSMRKMSMKIRPFFPQQ
chain 3: YVATRDNCCILDERFGSYCPTTCGIADFLSTYQTKVDKDLQSLEDILHQVENKTSEVKQLIKAIQLTYNPDESSKPNMIDAATLKSRKMLEEIMKYEASILTHDSSIRYLQEIYNSNNQKIVNLKEKVAQLEAQCQEPCKDTVQIHDITGKDCQDIANKGAKQSGLYFIKPLKANQQFLVYCEIDGSGNGWTVFQKRLDGSVDFKKNWIQYKEGFGHLSPTGTTEFWLGNEKIHLISTQSAIPYALRVELEDWNGRTSTADYAMFKVGPEADKYRLTYAYFAGGDAGDAFDGFDFGDDPSDKFFTSHNGMQFSTWDNDNDKFEGNCAEQDGSGWWMNKCHAGHLNGVYYQGGTYSKASTPNGYDNGIIWATWKTRWYSMKKTTMKIIPFNRLTIGEGQQHHLGGAKQAGDV
notes: also called Fbgn
For B1, the Kd was found to be 190 nM in assay [1] and 10.8 nM in assay [2].
